Laboratory results: the DeepSol protein solubility set

Test: soluble on expression in E. coli; label from the status in PepcDB or PDB records

Soluble on expression in E. coli, soluble:
MSLSLSLEVLERLVAFETVSDRPNLDMIAYVEDFLRTRGFRVHRIADPEEAKAGLFAEIGPSVDGGLLLSAHSDVVPVEGQSWCVPPFKLTRQGDKLYGRGTTDMKGFLAEMLALADVVHRRDLHAPLKLLISYDEEIGCVGISRMKDRLRPLLGRPELAIVGEPTEMQVAISHKGKRSYRADFRGEAGHSALAPRFVNALHLAVDFVTKLRQMQDEFRQDGNFNGDYDVPYTTLHVGQLHGGEALNLVPDKATLLFEFRHLAEDDPEVIEARIQQAADAVKGNYADVAHISLDALAGYPGLSVAVSEPLVSRVRSWCDGNISHVAFGTEAGVLSELGIQTVVCGPGSMAEQGHKPDEFISEHQLAACSNMLRKGAEEMLYCAEGHHHHHH, MSLSMLEKVSFSTTPDFELGFEHCPRQTDYLIAQPKERAKGLVVYIPGFGDDAGEYREKFCLKVAEKYDLAAMTVDYHCFYSRPEVHSATAYEAEDVALIEKLFLAHNLPFAGDTIEEGIEILNKHLASHNQKASITATLIPGKDEYQNAGVLQALDIINAVGHAIEKYSIPAENVILIGSSYGGYIANLATKFAPKTFRAVFDNSSWAQPHFTYIVGREYGYPELIHKTHSHIATKLFLRTAWTLKKGLPNTFDGKRFYVRTFSEDQLGQFSSYEPETYYYFIHAEKDKLALTEHKIQMATYMIQREMNVHMEVMEAADIDGQYIKTIEHGMNLSMLTFFDKAYAHINDHTISLENDFMNGSLVGYDSGDHRYEFDFSTFPVTGRVTQKAVAEGHHHHHH, MSLSNAVAQDLMTIADIVEATTTAPIPFHITAFDGSFTGPEDAPYQLFVANTDAVSYIATAPGDLGLARAYLMGDLIVEGEHPGHPYGIFDALKEFYRCFKRPDASTTLQIMWTLRKMNALKFQEIPPMEQAPAWRKALINGLASRHSKSRDKKAISYHYDVGNEFYSLFLDDSMTYTCAYYPTPESSLEEAQENKYRLIFEKLRLKEGDRLLDVGCGWGGMVRYAAKHGVKAIGVTLSEQQYEWGQAEIKRQGLEDLAEIRFMDYRDVPETGFDAISAIGIIEHIGVNNYPDYFELLSSKLKTGGLMLNHSITYPDNRPRHAGAFIDRYIFPDGELTGSGTLIKHMQDNGFEVLHEENLRFDYQRTLHAWCENLKENWEEAVELAGEPTARLFGLYMAGSEWGFAHNIVQLHQVLGVKLDEQGSRGEVPERMWWTEGHHHHHH, MSLSNDYPLVSIIIPTYNSSDYITETLTKLEKQTYPNFEIVIVNDGSKDNTSSVLREYGLTHSRLIIINKENGGVSSARNTGIRKAQGQFICFMDDDDEIDPNYLLKMYSRQHETGGDAIYCGLYGHHIKNGVTYSPINTDFNEGSLLFDFFYKKVRFHIGCLFIRKQLLEDNNLFFDEDLRLGEDLDFIYRLLITCDMYAVPYYMYKHNYRENSLMNSCRTITHYRHESFAHERIYSSVMQLYKGNRKEEIHTLLSKNRTYHKTRYLWNVLLNGDFELLNQLVESNEKELKDCNLLGKRDKRRAKILASKNYILWRMVRLVNRKKNKEGHHHHHH, MSLSPPGVRLFYDPRGHHAGAINELCWGLEEQGVPCQTITYDGGGDAAALGALAARSSPLRVGIGLSASGEIALTHAQLPADAPLATGHVTDSDDQLRTLGANAGQLVKVLPLSERN, MSLSQEMIKKWLDEEGFLRMEVPDENARFHYVVNYPEDHVIDIIQPAGKDDMILIACATSVSPEHQAGIRALSMEKRTEFIWKVRFTLNRFGVDFQLDHPENVLNSYLVTDEIFFDGLSKDRLISSIKNVFRAKLQVMWMIQERFGEERPEHDSMYVEGHHHHHH, MSLSQPRYLSESKVAIKQSSDINGSNLNVGLLLGTGNPSSAEDALYLKEYISSPDMLGVLDKQLNFRQAFGQSGWDFFYHLSEGATREQFLNYYRDRISVVYDDKTGLLTLGTQGFSPEFAEAFNQAVLKESEKFINEISHRIAREQLQFAEDEMQAARVRLNRSKTELLTYQNSNNVLDPEAQALAATSLVNTLVSQRIQMEAELRNLLTYLRDDAPQVISAQNALKSLSTQIDNEKNKITAPDGHKLNRMAVDFEEIKAKVQFDGEIYKLTLTSIEKTRVDAARKLKVLSVISSPQLPEESAFPNREGHHHHHH, MSLSRLSEKKGFNFNIIKNDPLDGHKGTNIGSISLDNIAPVFIDIENQKAFVDIGGMHARAEVEKGVKWITDKSQVEGEEAKAYWLCWVTTERSEQGPYYAGVTACYLLVNKSIRRGYKSMPEHVNMMDKSMKHQFIIDQIGDDNKQILKEFLQNHNVEMWNNSSEELYRTFEEGHHHHTTDPNSSSVDKLAAALEHHHHHH, MSLSRLVVVSNRIAPPDEHAASAGGLAVGILGALKAAGGLWFGWSGETGNEDQPLKKVKKGNITWASFNLSEQDLDEYYNQFSNAVLWPAFHYRLDLVQFQRPAWDGYLRVNALLADKLLPLLQDDDIIWIHDYHLLPFAHELRKRGVNNRIGFFLHIPFPTPEIFNALPTYDTLLEQLCDYDLLGFQTENDRLAFLDCLSNLTRVTTRSAKSHTAWGKAFRTEVYPIGIEPKEIAKQAAGPLPPKLAQLKAELKNVQNIFSVERLDYSKGLPERFLAYEALLEKYPQHHGKIRYTQIAPTSRGDVQAYQDIRHQLENEAGRINGKYGQLGWTPLYYLNQHFDRKLLMKIFRYSDVGLVTPLRDGMNLVAKEYVAAQDPANPGVLVLSQFAGAANELTSALIVNPYDRDEVAAALDRALTMSLAERISRHAEMLDVIVKNDINHWQECFISDLKQIVPRSAESQQRDKVATFPKLAEGGSHHHHHH, MSLSSGRTVPTRSHGLGKEGVSTTGASQVEFGDPELTARINDAMVQVEELLHTELSSGEDFLVDIVMHLTRAGGKRFRPMFALLASEFGEKPLSENVIKAAVVVEITHLATLYHDDVMDEASMRRGVPSANARWDNSVAILAGDILLAHASGLMSQLGTDTVAHFAETFGELVTGQMRETVGPRDTDPIEHYTNVIREKTGVLIASAGYLGAMHAGAAPEHIDALKNFGAAVGMIFQIVDDIIDIFSETHESGKTPGTDLREGVFTLPVLYALREDTPVGAELRDILTGPLEDDETVNHVLELLSQSGGRQAALDEVYRYMDIANAELDRLPDSTVKEALRNLATFTVKRVGEGHHHHHH, MSLSSLGEELETKISEEVGFKPLGIKRILPAASTKLPFASLDNFAIDNHNNKYAAASGELLICGDLQKLREYVTNDNEEDNYEPEYKHEISNIIALKFMNGKLILVTKSGRICEYSTENLNQELMNHELKLDLVSVKTLPSKIIMLDSSNVLKGLSLSNLNLENIAENISSFDVLYDKLVYISVLKDIYVSDTISNGVNKEIILPESLSEELDDGYEALDIKILSENEYFVVFGNNVSPDESDPSYDHKTYVVSQKEESVVYQETFDIAPAFASVLRYPCYYNVILPGIFEEDKNVNIIGSATSSEISVWDSVNVVQPDQDSERAVFPISKETDEDTTPIGMCLDFSTVGEIPEPCPGVDNTDSLPLVYSLTNEGFLQINGFYHTGLIKAGKYDIKLLGERIYSIYEQDGGEVEEGHHHHHH, MSLSTPIQAEPPNLSLIRKEIKNYYDSGLYYHELERTIKLAQEYIHQQYLINKNNKHPQKLAIVLDIDETSLSNYDKMVKRDFTGSKEQIHKEILAANSPAIKPMLTLYKNALKQGIKVFFVTGRQESERDATRANLIKAGYTKWAGLYLRPNGYSSPSIIPFKSKAREMIAKKGYTIIASIGDQCSDIQGGYTKKGFKLPNPFYYLPEGHHHHHH, MSLSTRVFPERPILVVDDERAALDGFEVALVSSGYTNIVTMDDSRKVLPFIAEHEAELILLDLIMPHVSGTELIEEIKRRRPEVPIIIITAVNDIDSVVECIRNGAQDYILKPVDKDHLRNRVQQALERRELERENRLLRASLLDGEIRHPEAFSDIVTQDQKMHAIFRYCEAVAPSTKPILITGETGTGKELVAQALHRLSGRKGEFVAVNIAAFDDPVFADTLFGHSRGAFTGADTPRAGLVEKAAGGTLFLDEIGDLPALSQVKLLRLLQEKEYFPVGSDNAKKANVRIVASTLKNLVDLRHRGLFRDDLYYRLTTHRIHIPPLRERPGDIPCLLDHFLELDAREQKRKPPSYHPELINLLRSYAFPGNIRELRGMISDAFMNHASHMLSSSSFRQYIMNEGHHHHHH

Soluble on expression in E. coli, not soluble:
MSLSMKSELRKQVLHEMKAISQEQKQAIDQALTERLLHHPFYQEAKVIATYLSFSHEFQTRELIEQALKDGKKVLIPKTYPKGRMEFVAYDPQQLVKTSFALLEPQGDVEVVDASQIDLIHVPGLAFTTKGYRIGYGGGYYDRYLEHFSGRTLSTIYPCQIQDFIPEEGHHHHHH, MSLSPAPTTMDFTPAPLEDTSSRPQFCKWPCECPPSPPRCPLGVSLITDGCECCKMCAQQLGDNCTEAAICDPHRGLYCDYSGDRPRYAIGVCAQVVGVGCVLDGVRYNNGQSFQPNCKYNCTCIDGAVGCTPLCLRVRPPRLWCPHPRRVSIPGHCCEQWVCEDDAKRPRKTAPRDTGAFDAVGEVEAWHRNCIAYTSPWSPCSTSCGLGVSTRISNVNAQCWPEQESRLCNLRPCDVDIHTLIKAGKKCLAVYQPEASMNFTLAGCISTRSYQPKYCGVCMDNRCCIPYKSKTIDVSFQCPDGLGFSRQVLWINACFCNLSCRNPNDIFADLESYPDFSEIANEGHHHHHH, MSLSPGKKRAMINRDHPKLSISQQCKLVSLSRSAFYYTPAGIDADTLSMMKEIDRVFTKYPFFGSRQIAAYLRREGIVVGRHRVRRLMAKMGLEAVYKRPRTSQPHPQHPVFPYLLRKMVIDRPNQVWCADITFVPVRNGFLYLVAIMDWATRKVLSWRLSNTMHADFCVEALSEAIARYGPPEIMNTDQGSQFTGSAWITTLTEAGVRISMDGRGRYLDNIFIERLWRSLKQEAIYLEEINEGFRARRVIKGWMAFYNTSRPHSALDRQTPDDAYWAGLEERHAAEGHHHHHH, MSLSRITTDQLRHAVLDRGSFVSWDSEPLAVPVADSYARELAAARAATGADESVQTGEGRVFGRRVAVVACEFDFLGGSIGVAAAERITAAVERATAERLPLLASPSSGGTRMQEGTVAFLQMVKIAAAIQLHNQARLPYLVYLRHPTTGGVFASWGSLGHLTVAEPGALIGFLGPRVYELLYGDPFPSGVQTAENLRRHGIIDGVVALDRLRPMLDRALTVLIDAPEPLPAPQTPAPVPDVPTWDSVVASRRPDRPGVRQLLRHGATDRVLLSGTDQGEAATTLLALARFGGQPTVVLGQQRAVGGGGSTVGPAALREARRGMALAAELCLPLVLVIDAAGPALSAAAEQGGLAGQIAHCLAELVTLDTPTVSILLGQGSGGPALAMLPADRVLAALHGWLAPLPPEGASAIVFRDTAHAAELAAAQGIRSADLLKSGIVDTIVPEYPDAADEPIEFALRLSNAIAAEVHALRKIPAPERLATRLQRYRRIGLEGHHHHHH, MSLSTIDLHVHSNYSDGIHPPADLVKMAAERGLVAIAIADHDTVDGIDEALIAGARLGVEVVPAVELSAEHGRYRDMHILGYHLDHRDPRLVDMLAEFRINREIRGRAIVDKINQRLADGRKPLLSYDEVLNLAEGAVGRPHIGRMLIERGYARNMEDAFRRYLIPCNVPKRYIPAGDAITEIRRAGGVAVLAHPITVSDDRQVLRGIVSELVALGLDGIEVFNNMCYKDDMLFLEFLCRESGLLMTGGSDFHGFEDDVEIGSGREGHHHHHH, MSLSTVTMILGQSGTGKSTSLRNLDPSQTLLIQAIKKPLPFKSGNWKPANKENPAGSIFVCDSAATIVGAMKRTKRPVIVIDDFQYVMANEFMRRSAEKGFDKFTEIGRNAWDILVEAARLPDEVRVYVLSHVETTDDGRTKIKTIGRMLDEKITLEGMVSIVLKTVVQDGQHFFATRNNGSDTVKTPMGMFDADLIENDLAAVDTAIYQYYGLTEAEGHHHHHH
